Test results from patent publication EP1105154B1 (Walter Reed Army Institute of Research, dated 2016).

Target: T1, HLA-DR1 (DR1αβ; DRA and DRB1*0101) on cells (human)
T1 construct: whole, on cells
Assay: flow cytometry on human MHC class II expressing cells

B1: Staphylococcal enterotoxin A (SEA), wild type (ligand)
chain: SEKSEEINEKDLRKKSELQGTALGNLKQIYYYNEKAKTENKESHDQFLQHTILFKGFFTDHSWYNDLLVDFDSKDIVDKYKGKKVDLYGAYYGYQCAGGTPNKTACMYGGVTLHDNNRLTEEKKVPINLWLDGKQNTVPLETVKTNKKNVTVQELDLQARRYLQEKYNLYNSDVFDGKVQRGLIVFHTSTEPSVNYDLFGAQGQYSNTLLRIYRDNKTINSENMHIDIYLYTS
  binding result: binds
